What was measured:
[1] = biological target: recombinant λ6-variable domain light chain Jto in fibrillar form; test: EuLISA on plate-immobilized fibrils
[2] = biological target: recombinant λ6-variable domain light chain Jto in fibrillar form; test: binding to plate-immobilized fibrils
[3] = biological target: fibrillar Aβ1-40 peptide (Homo sapiens (Human)) (UniProt P05067)
Chain of fibrillar Aβ1-40 peptide (Homo sapiens (Human)) (P05067 672-711 limits assumed): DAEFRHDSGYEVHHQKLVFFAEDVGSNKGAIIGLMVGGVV

EC50 [1]: 24 nM | Max. Eu3+ [1]: 195 fmol | affinity [2]: 20 nM | Aβ fibril growth (recruitment of soluble biotinylated Aβ monomer to plate-bound Aβ1-40 fibrils, EuLISA) [3]: 1 µM
B1: antibody heavy chain F1 (protein)
heavy: AMDWTWSILFLVAAATGAHSQVQLVQSGAEVKKPGASVKVSCKASGYTFSSNGIIWVRQAPGQGLEWLGWISGYNGKTRYAQKVQGRVTITTDTSTSTAYMELRSLRSDDTAVYYCAREKTMVRGAISGYSDYWGQGTLVTVSSASTKGPSVFPLAPSSKSTSGGTAALGCLVKDYFPEPVTVSWNSGALTSGVHTFPAVLQSSGLYSLSSVVTVPSSSLGTQTYICNVNHKPSNTKVDKKRVEPKSCDKTHTCPPCPAPELLGGPSVFLFPPKPKDTLMISRTPEVTCVVVDVSHEDPEVKFNWYVDGVEVHNAKTKPREEQYNSTYRVVSVLTVLDHQDWLNGKEYKCKVSNKALPAPIEKTISKAKGQPREPQVYTLPPSREELMTKNQVSLTCLVKGFYPSDIAVEWESNGQPENNYKTTPPVLDSDGSFFLYSKLTVDKSRWQQGNVFSCSVMHEALHNHYTQKSLSLSPGK
